What was measured:
[1] = biological target: T1, recombinant chymase (expressed by yeast) (Homo sapiens, UniProt P23946); test: Chymase inhibitory activity using angiotensin I as substrate, recombinant chymase; format: biochemical; settings: final 50 μM, chymase 0.2-0.5 nM, 37° C. 90 min, one measurement
T1 construct: purchased SIGMA; host or cells: yeast
T1 sequence (P23946 22-247): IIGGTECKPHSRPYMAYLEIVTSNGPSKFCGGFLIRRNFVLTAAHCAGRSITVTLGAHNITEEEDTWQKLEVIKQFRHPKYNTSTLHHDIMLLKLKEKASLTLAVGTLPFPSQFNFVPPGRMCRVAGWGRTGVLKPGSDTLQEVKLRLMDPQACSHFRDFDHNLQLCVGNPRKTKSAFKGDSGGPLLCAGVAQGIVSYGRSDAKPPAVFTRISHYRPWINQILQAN
Experimental: (§1) A second method of evaluation employs a native substrate. A useful native substrate for chymase is angiotensin I. Here, His-Leu, a peptide fragment released upon degradation of angiotensin I, is fluorescently derivatized, and the fluorescence intensity therefrom is quantified.
(§2) In the assay, an enzyme reaction is carried out in 50 μL of solution C. First, 0.3-0.75 ng of chymase (recombinant, manufactured by SIGMA; or native, manufactured by Calbiochem) is diluted in solution C to obtain 5 μL chymase solution. Each nucleic acid is prepared in solution C to obtain 25 μL solutions. 5 μL of each chymase dilution and 25 μL of each nucleic acid solution are mixed, and then the mixture is incubated at 37° C. for 5 minutes. […] The angiotensin I solution is added to the mixture of chymase and nucleic acid, and the enzyme reaction is initiated. After the reaction was allowed to proceed at 37° C. for 90 minutes, 25 μL of ice-cooled 30% trichloroacetic acid solution is added to terminate the reaction. The entire mixture is centrifuged at 4° C., 14000 rpm for 10 minutes, and 30 μL of the resulting supernatant is used for the subsequent reaction for fluorescent derivatization.
(§3) After 30 μL of the supernatant is added to a 96-well plate (Black, manufactured by Costar), 15 μL of 2% o-phthalaldehyde (manufactured by SIGMA) solution in methanol and 170 μL of 0.3M NaOH solution are mixed in each well, and the plate is allowed to stand at room temperature for 10 minutes. Subsequently, 25 μL of 3M HCl solution is added to terminate the reaction. The plate is set to the microplate reader SpectraMax190 (manufactured by Molecular Devices Corporation), and the fluorescence intensity is determined at an excitation wavelength of 355 nm and a fluorescence wavelength of 460 nm.
(§4) For control, samples are treated and analyzed in the same manner in two cases: use of SEQ ID NO: 58 (negative control) and use of chymostatin, a known chymotrypsin-like serine protease inhibitor (positive control). In both cases, fluorescence intensity obtained at 0 minute reaction time serves as a blank determination. Taking the fluorescence intensity detected with the addition of an equal volume of solution C, in place of each nucleic acid, in the chymase enzyme reaction as 100%, the inhibitory rate for each test substance is calculated, and the inhibitor concentration required to cause a 50% inhibition of the enzyme activity (IC50) is determined.
(§5) For further assessment of the inhibitory activity of the nucleic acid of the present invention, the enzyme activity of chymase was measured using angiotensin I, which is a native substrate for chymase, according to the following method. Angiotensin I is converted by chymase to angiotensin II, during which a peptide fragment His-Leu is released. Since the peptide His-Leu is fluorescently derivatized by o-phthalaldehyde, its fluorescence intensity can be quantitatively measured.
(§6) The total volume of solution for an enzyme reaction in the assay was set to 50 μL, and the reaction was performed in solution C buffer. First, 0.3-0.75 ng of chymase (recombinant, (manufactured by SIGMA) or native (manufactured by Calbiochem)) was diluted with solution C to give 5 μL thereof. Here, the recombinant is chymase expressed by yeast, and the native is chymase purified from human skin mast cell. The nucleic acid was serially diluted with solution C at a concentration of 0.0027-2 μM to give 25 μL thereof. The chymase solution (5 μL) and the nucleic acid solution (25 μL) were mixed, and the mixture was incubated at 37° C. for 5 min. On the other hand, […] angiotensin I (manufactured by PEPTIDE INSTITUTE, INC.) was prepared in solution C to give […] thereof, which was incubated at 37° C. for 5 min. The angiotensin I solution was added to a mixture of chymase and nucleic acid to start an enzyme reaction. The final chymase concentration of the reaction solution was 0.2-0.5 nM, and the final substrate concentration was 50 μM. […]

[2] = biological target: T2, chymase (recombinant, manufactured by SIGMA) (Homo sapiens, UniProt P23946); test: Chymase inhibitory activity using synthetic substrate Suc-Ala-Ala-Pro-Phe-MCA; format: biochemical
T2 construct: purchased SIGMA; host or cells: yeast
T2 sequence (P23946 22-247): T1 sequence (P23946 22-247)
Method in brief: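 Human recombinant chymase (16.7 nM or 1.67 nM final) preincubated 5 min at 37° C., then added to nucleic acid (0.0027–2 μM serial dilutions) and 100 μM substrate in solution C. AMC fluorescence (ex 380/em 460 nm) followed 5 or 30 min at 37° C.; slope gives initial velocity, inhibition versus no-inhibitor control yields IC50.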

[3] = biological target: T3, native chymase (purified from human skin mast cell) (Homo sapiens, UniProt P23946); test: Chymase inhibitory activity using angiotensin I as substrate, native chymase; format: biochemical; settings: final 50 μM, chymase 0.2-0.5 nM, 37° C. 90 min, one measurement
T3 construct: the native is chymase purified from human skin mast cell; purchased Calbiochem; host or cells: human skin mast cell
T3 sequence (P23946 22-247): T1 sequence (P23946 22-247)
Experimental: as §1, §2, §3, §4, §5, §6

chymase = biological target: T4, chymase (Homo sapiens, UniProt P23946); test: Surface plasmon resonance (Biacore T100), aptamer immobilized on SA chip, chymase injected as analyte; format: binding; design: key: ++: a sequence that binds to chymase significantly more strongly than the negative control 30N; settings: Table 2; same manner as Example 1, running buffer solution C; compared with 30N
T4 sequence (P23946 22-247): T1 sequence (P23946 22-247)
Experimental: Binding strength is measured using Biacore T100 (manufactured by GE Healthcare). In a method of measurement, the aptamer is first immobilized onto a sensor chip, the amount immobilized being about 1000 RU. 20 μL of a chymase solution for analyte, prepared at 0.2 μM, is injected, and the binding of chymase to the aptamer is detected. An RNA comprising a random nucleotide sequence of 30 or 40 nucleotides is used as a negative control.
The binding activities against chymase of the nucleic acids shown by SEQ ID NO: 4-20 and 22-34 were determined by the surface plasmon resonance method using Biacore T100 (manufactured by GE Healthcare). The sensor chip used was the SA chip, which had streptavidin immobilized thereon. Bound thereto was about 1500 RU of a 16-nucleotide Poly dT with biotin bound to the 5′ end thereof. […] 20 μL of chymase for analyte, prepared at 0.2 μM, was injected. Solution A was used as a running buffer.
The binding activities against chymase of the nucleic acids shown by SEQ ID NO: 38-48 were evaluated by the surface plasmon resonance method. In the evaluations for SEQ ID NO: 38-48, measurements were taken in the same manner as Example 1. Solution C was used as a running buffer.

chymase (recombinant) = biological target: T5, chymase (recombinant) (UniProt P23946 P23946:22-247); test: inhibition; SPR ++; settings: tags: SIGMA, expressed in yeast
T5 sequence: T1 sequence (P23946 22-247)
Experimental: Here, Suc is a protecting succinyl group, and MCA is a 4-methylcoumaryl-7-amide group; upon cleavage of the C-terminal side of phenylalanine, AMC (7-amino-4-methyl-coumarine) is released. By detecting the fluorescence of this AMC, the enzyme activity of chymase can be determined. The assay was performed using a 96-well plate (F16 Black Maxisorp Fluoronunc, manufactured by Nunc), with a reaction mixture volume of 100 μL, in solution C as a buffer solution. First, each nucleic acid was serially diluted to 0.0027-2 μM concentrations in solution C to obtain 50 μL solutions. After 10 μL of the 1 mM substrate prepared in solution C was added thereto, the plate was set to the microplate reader SpectraMax190 (manufactured by Molecular Devices Corporation), and incubated at 37° C. for 5 minutes. Separately, 0.05 μg (or 0.005 μg) of chymase (recombinant, manufactured by SIGMA) was diluted in solution C to obtain a 40 μL chymase solution, and incubated at 37° C. for 5 minutes. The chymase solution was added to the mixture of the nucleic acid and substrate to initiate an enzyme reaction. The final chymase concentration in the reaction mixture was 16.7 nM (or 1.67 nM), the final substrate concentration being 100 μM. The plate containing the reaction mixture was set to the microplate reader SpectraMax190 (manufactured by Molecular Devices Corporation), and examined for time-dependent changes in the fluorescence intensity at 37° C. for 5 minutes (or 30 minutes) (excitation wavelength 380 nm, detection wavelength 460 nm). A linear approximation of the increase in the fluorescence of the AMC released from the substrate by chymase activity was generated, and its slope was taken as the initial velocity […]. For control, samples were treated and analyzed in the same manner in two cases: use of a 30N or 40N (a nucleotide of 30 or 40 consecutive bases represented by N; N is A, G, C or T) nucleic acid pool (negative control), and use of chymostatin, a known chymotrypsin-like serine protease inhibitor (positive control). Taking the initial reaction velocity without the nucleic acid and inhibitor (V_0) as a 100% enzyme activity, the inhibitory rate of each test substance was calculated using the following equation: […]
The inhibitory activity on chymase was measured in the same manner as in Example 3.

[4] = Table 3, substrate 100 μM, solution C, 37° C., mean value for 2 to 3 measurements

## 69 (AAAGGGUUAGAUAGAGUUAAAAACCC; listed as RNA, chemistry not given here) [compound 69]
[1]
  IC50: 628 nM
[2]; Table 7, same manner as Example 3, mean value of two measurements
  IC50: 91 ± 19 nM
[3]
  IC50: > 1000 nM

B1: 43 (nucleic acid)
chain: GGGAGCAGGAGAGAGGUCAGAUGAUGCCAAGAUAGAUUUAAAUGGCGUUUGGGCCUAUGCGUGCUAGUGUGA
modifications: aptamer; 2'-fluoro at CU, RNA at AG, backbone not given here
chymase
  Binding activity as determined using Biacore: ++
[2]; [4]
  IC50: 81 ± 50 nM

## GGGUUAGAUAGAGUUAAAAACCC (ssRNA, 2'-F pyrimidines except U9 2'-OH) [56(15)]
Chymase (recombinant)
  IC50: 61 nM

B2: 48 (nucleic acid)
chain: GGGAGCAGGAGAGAGGUCAGAUGUGAAGAUAGAGAUAAAUCACAUACAGUCGGCCUAUGCGUGCUAGUGUGA
modifications: aptamer; 2'-fluoro at CU, RNA at AG, backbone not given here
chymase
  Binding activity as determined using Biacore: ++
[2]; [4]
  IC50: 95 ± 18 nM

B3: 45 (nucleic acid)
chain: GGGAGCAGGAGAGAGGUCAGAUGGACCACCGAUGGGCAAGAUAGAGUUAAAUGCCUAUGCGUGCUAGUGUGA
modifications: aptamer; 2'-fluoro at CU, RNA at AG, backbone not given here
chymase
  Binding activity as determined using Biacore: ++
[2]; [4]
  IC50: 74 ± 11 nM

## GGGUUAGAUAGAGUUAAAAACCC (ssRNA, 2'-F pyrimidines except U15 2'-OH) [56(16)]
Chymase (recombinant)
  IC50: 58 nM

B4: 39 (nucleic acid)
chain: GGGAGCAGGAGAGAGGUCAGAUGGUUACGGAUAGAGUUAAGGUAACGGUACGGCCUAUGCGUGCUAGUGUGA
modifications: aptamer; 2'-fluoro at CU, RNA at AG, backbone not given here
chymase
  Binding activity as determined using Biacore: ++

B5: 40 (nucleic acid)
chain: GGGAGCAGGAGAGAGGUCAGAUGAACGGAUAGAGCUAAGAGUUCGUCAGAGGGGCCUAUGCGUGCUAGUGUGA
modifications: 2'-fluoro at CU, RNA at AG, backbone not given here
chymase
  Binding activity as determined using Biacore: ++
[2]; [4]
  IC50: 140 ± 85 nM

B6: 42 (nucleic acid)
chain: GGGAGCAGGAGAGAGGUCAGAUGCGUGAUCGUGCAAGGCGGAUAGAGUUAAGGCCUAUGCGUGCUAGUGUGA
modifications: aptamer; 2'-fluoro at CU, RNA at AG, backbone not given here
chymase
  Binding activity as determined using Biacore: ++
[2]; [4]
  IC50: 124 ± 26 nM

B7: 38 (nucleic acid)
chain: GGGAGCAGGAGAGAGGUCAGAUGGAUAGAGUUAAGAUCUGGCUGGCGCAUUAGCCUAUGCGUGCUAGUGUGA
modifications: aptamer; 2'-fluoro at CU, RNA at AG, backbone not given here
chymase
  Binding activity as determined using Biacore: ++
[2]; [4]
  IC50: 50 ± 12 nM

B8: 46 (nucleic acid)
chain: GGGAGCAGGAGAGAGGUCAGAUGGGACAGAUAGAGUUAAAGUCCGUUACGUGGCCUAUGCGUGCUAGUGUGA
modifications: aptamer; 2'-fluoro at CU, RNA at AG, backbone not given here
chymase
  Binding activity as determined using Biacore: ++
[2]; [4]
  IC50: 38 ± 4 nM

B9: 47 (nucleic acid)
chain: GGGAGCAGGAGAGAGGUCAGAUGGUGAUAGAUAGAGUUAAAAUCGCUGAAUGGCCUAUGCGUGCUAGUGUGA
modifications: aptamer; 2'-fluoro at CU, RNA at AG, backbone not given here
chymase
  Binding activity as determined using Biacore: ++
[2]; [4]
  IC50: 58 ± 12 nM

B10: 44 (nucleic acid)
chain: GGGAGCAGGAGAGAGGUCAGAUGUUAGACCAAAGCAUAGGAGAUAGAGUUAAACCUAUGCGUGCUAGUGUGA
modifications: aptamer; 2'-fluoro at CU, RNA at AG, backbone not given here
chymase
  Binding activity as determined using Biacore: ++
[2]; [4]
  IC50: 49 ± 13 nM
